Experimental data: patent publication US20240009137A1, “ORAL THERAPEUTIC DELIVERY” (ROYAL MELBOURNE INSTITUTE OF TECHNOLOGY, priority 2020, published 2024)
Values joined by “and” are separate entries in the source; they are usually repeats but may differ in a detail not shown here. Equal entries are not always repeated.

Experiments:
[1] = previously provided in the literature; cited from earlier work
[2] = Fluorescence recovery after photobleaching (FRAP), diffusion coefficient; assay type: physicochemical
Protocol: FRAP was performed on a Nikon confocal microscope. […] A bleaching and background region of interest (ROI) was used to selectively photobleach an area of the cubic phase and the fluorescence recovery curve was recorded with time. The excitation/emission wavelengths used were 553/627 nm for the octadecyl rhodamine B chloride. […] […] The open source Matlab code frap_analysis_2p5 was used to determine diffusion coefficients μ from FRAP data.

[3] = Release of insulin from bulk cubic phase (A280 of supernatant; Ritger-Peppas and Higuchi fits); assay type: physicochemical
Protocol: This mixture was then injected into a 1.5 mL Eppendorf tube and centrifuged at 1200 RPM for 1 min to achieve a flat surface. The height of this surface was measured to determine the diameter for subsequent surface area calculations. 150 μl of water was added on top of the cubic phase and immediately removed for T=0 time point. 150 μl of supernatant fluid was removed every 30 min over a 12 hour period for analysis and replaced with a further […] of water. A final reading was taken at 22 hour.
Mt, M0, k and n are the released quantity at time t, initial quantity encapsulated, fitting coefficient and fitting exponent, respectively. This allows for the coupling of multiple release mechanisms (e.g., diffusion-controlled, zero-order) where the diffusional exponent n, is indicative of the release mechanism and geometry of the interface and the fitting coefficient k reflects characteristics of both the matrix and the solute.
where Q, C0 and D are the released concentration per unit area, initial concentration per unit volume and the diffusion coefficient, respectively. Diffusion control dictates that the release profile against √t should be linear. […] The determined parameters were compared to those found during FRAP analysis (DFRAP).

chymotrypsin = target: T1, chymotrypsin (Bos taurus, UniProt P00766); test: Enzymatic degradation of insulin by chymotrypsin followed by synchrotron CD (Dichroweb); assay type: in vitro ADME
T1 construct: purchased Sigma Aldrich (Australia)
Protocol: SR-CD measurements were conducted in the 170-350 nm region using the CD beamline of the synchrotron radiation source ASTRID2 at ISA, Centre for Storage Ring Facilities at Aarhus University (Denmark). Suprasil Quartz cells (Hellma GmbH & Co., Germany) of nominal 0.1 mm path length (actual calibrated path lengths=102.3 and […]), requiring an approximately 30 μl sample volume, were used for measurements at 37° C. in a temperature-regulated sample holder. […] The sample measurements were obtained at 1 nm increments in wavelength, 1 sec averaging time and 1 scan for each sample. Data were mildly smoothed with a 5-point moving mean in Matlab. The online service DichroWeb was used for secondary structure content analysis of the CD spectra using the CONTIN routine and the SP175 reference set.
Chymotrypsin, which is typically found in the small intestine, was utilized as a model enzyme.

[4] = insulin in water 0.2 mg/ml, chymotrypsin 0.02 mg/ml, time 0 min
[5] = insulin in water 0.2 mg/ml, chymotrypsin 0.02 mg/ml, time 2 min
[6] = insulin in water 0.2 mg/ml, chymotrypsin 0.02 mg/ml, time 12 min

In the case of “Insulin: human recombinant insulin (Sigma Aldrich); FITC labelled insulin used for FRAP; free or encapsulated in MO or PT cubic phase”, the “diffusion coefficient in water” value [1] is listed as 1.5 ×10^−6 cm^2 s^−1, the “Diffusion Coefficient” value ([2]; MO QII^D phase at the water interface (DFRAP)) is listed as 2.89 ×10^−6 cm^2 s^−1 and the “Diffusion Coefficient” value ([2]; PT QII^D phase at the water interface (DFRAP)) is listed as 4.36 ×10^−6 cm^2 s^−1. For the same substance, the “Diffusion Coefficient” value ([2]; in MO QII^D bulk cubic phase (insulin: FITC labelled, 5 mg/ml)) was 2.29 ×10^−6 cm^2 s^−1, the “Diffusion Coefficient” value ([2]; in PT QII^D bulk cubic phase (insulin: FITC labelled, 5 mg/ml)) was 4.17 ×10^−6 cm^2 s^−1 and the “Diffusion Coefficient” value ([2]; in solution (free, FITC labelled insulin)) was 6.56 ×10^−6 cm^2 s^−1. For the same substance, the “Diffusion Coefficient” value ([2]; in solution (free, FITC labelled insulin), listed as insulin) was 6.6 ×10^−6 cm^2 s^−1, the “diffusion coefficient higher at the interface compared to in the bulk” value ([2]; stated for both lipids (MO and PT)) was “approximately 15%” and the “insulin released over the first two hours” value ([3]; from MO bulk cubic phase) was “approximately 15%”. The “release over a 24 h period” value ([3]; from MO bulk cubic phase) was “approximately 50%”, the “insulin released over the first two hours” value ([3]; from PT bulk cubic phase) was “approximately 25%” and the “release over a 24 h period” value ([3]; from PT bulk cubic phase) was 60%. The “insulin released over 2-hour time period” value ([3]; from the cubic phase (lipid not specified)) was “approximately 20%”, the “k, fitting coefficient (Ritger-Peppas model)” value ([3]; insulin release from MO) was 0.88 ± 0.06 and the “time to 20% release” value ([3]; release from MO bulk cubic phase into aqueous sink) was roughly 4 h. The “time to 20% release” value ([3]; release from PT bulk cubic phase into aqueous sink) was roughly 2 h, the “far UV CD spectrum, secondary structure” value (chymotrypsin; insulin 0.2 mg/ml encapsulated in PT cubic phase, 30 min after addition of chymotrypsin) was “still largely a-helical” and the “far UV CD spectrum, secondary structure” value (chymotrypsin; insulin 0.2 mg/ml in water, 30 min after addition of chymotrypsin) was “largely unordered”. The “near-UV CD minimum at 270 nm” value (chymotrypsin; insulin 0.5 mg/ml in MO bulk cubic phase, 132 min after addition of chymotrypsin 0.05 mg/ml) was “may still be observed”, the “far UV CD spectrum, secondary structure” value (chymotrypsin; insulin encapsulated in PT cubic phase, 2 hours after addition of chymotrypsin) was “retention of a-helical structures” and the “duration of protection against enzymatic degradation after addition of chymotrypsin” value (chymotrypsin; insulin in lipid nanocarrier in the form of a mesophase) was “at least 2 hours”. The “time by which the near-UV CD minimum at 270 nm has essentially disappeared” value (chymotrypsin; insulin in solution 0.5 mg/ml, chymotrypsin 0.05 mg/ml) was no more than 9 min, the “Unordered(%)” value (chymotrypsin; [4]) was 8% and the “β-sheet(%)” value (chymotrypsin; [4]) was 0%. For the same substance, the “β-turns(%)” value (chymotrypsin; [4]) was 3%, the “β-sheet(%)” value (chymotrypsin; [5]) was 0% and the “β-turns(%)” value (chymotrypsin; [5]) was 9%. The “β-sheet(%)” value (chymotrypsin; insulin in water 0.2 mg/ml, chymotrypsin 0.02 mg/ml, time 6 min) was 2%, the “Unordered(%)” value (chymotrypsin; [6]) was 41% and the “α-helix(%)” value (chymotrypsin; [6]) was 41% and 41.2%. The “time to complete degradation” value (chymotrypsin; insulin in water, no protective matrix, chymotrypsin added) was “less than 35 min”.
